From the supplement of paper PMC10567573

B1: APBB1IP (parent)
chain: SQVSMWDQRWQDHQPLLPITDVP

Variants of: B1
Assay: protein stability index of a GFP-peptide fusion (GPS, HEK-293T) (PSI 1-6); higher = more stable
Conditions: c terminus: native
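Also: lentivirally expressed fusions sorted by FACS into six bins by GFP to DsRed ratio, PSI derived from sequencing read proportions per bin multiplied by bin number.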

Protein stability index, by site and new letter:
D7: K 1.46, L 1.72, M 1.44, N 2.44, P 1.96, Q 2.44, R 1.77, S 1.61, T 2.27, W 1.49, Y 2
Q8: A 2.03, C 1.37, D 2.35, E 2.6, F 1.73, G 2.27, H 2.16, I 1.94, K 2.68, L 1.86, M 1.39, N 2.68, P 2.13, R 1.78, S 2.28, T 2.09, V 2.33, W 3.03, Y 2.21
R9: A 1.84, C 2.26, D 3.69, E 3.54, F 3.11, G 2.89, H 3.7, I 2.34, L 2.61, M 3.13, N 2.73, P 3.64, Q 3.39, S 2.4, V 2.38, W 1.93, Y 2.42
W10: C 3.12, D 3.44, F 2.31, H 3.14, I 2.81, K 3.75, L 2.51, M 2.4, N 3.39, P 3.68, Q 3.29, R 3.03, S 3.37, V 2.17, Y 2.55
Q11: A 1.84, C 1.92, D 2.38, E 3.38, F 1.68, G 1.77, H 1.67, I 3.03, K 2.87, L 1.59, M 2.06, N 2.74, P 2.1, R 3.7, S 2.37, T 2.29, V 2.25, W 1.77
D12: A 2.31, C 1.56, E 2.15, F 1.8, H 1.64, I 1.75, K 1.71, L 2.44, M 1.85, N 2.17, P 1.78, Q 2.06, R 1.34, S 2.1, T 2.59, V 3.1, W 1.24, Y 3.2
H13: A 3.06, C 2.24, D 3.17, E 3.47, F 1.88, G 3.03, I 2.3, K 2.76, L 1.95, M 1.99, N 2.85, P 2.23, Q 2.43, R 2.58, S 2.94, T 2.94, V 2.47, W 1.5, Y 2.15
Q14: A 2.48, C 3.58, D 2.74, E 3.31, F 2.25, G 2.54, H 2.67, I 2.09, K 2.28, L 2, M 2.15, N 2.89, P 2.74, R 1.86, S 2.38, T 2.48, V 2.23, W 2.23, Y 2.06
P15: A 2.23, C 2.18, D 4.41, E 2.77, F 2.2, G 3.45, H 2.07, I 2.03, K 2.82, L 2.06, M 1.82, N 2.77, Q 3.25, S 3.35, T 1.93, V 1.55, W 1.43, Y 2.27
L16: A 2.95, C 2.83, D 3.42, E 3.38, F 3.4, G 3.07, I 2.55, K 3.08, M 2.53, N 3.54, P 2.38, Q 2.73, R 2.61
